B2: His-tagged human MAVS-C79F expressed in MAVS-deficient MEFs (other, not shown: small tags and cut ends)
chain: MPFAEDKTYKYICRNFSNFCNVDVVEILPYLPCLTARDQDRLRATCTLSGNRDTLWHLFNTLQRRPGWVEYFIAALRGFELVDLADEVASVYQSYQPRTSDRPPDPLEPPSLPAERPGPPTPAAAHSIPYNSCREKEPSYPMPVQETQAPESPGENSEQALQTLSPRAIPRNPDGGPLESSSDLAALSPLTSSGHQEQDTELGSTHTAGATSSLTPSRGPVSPSVSFQPLARSTPRASRLPGPTGSVVSTGTSFSSSSPGLASAGAAEGKQGAESDQAEPIICSSGAEAPANSLPSKVPTTLMPVNTVALKVPANPASVSTVPSKLPTSSKPPGAVPSNALTNPAPSKLPINSTRAGMVPSKVPTSMVLTKVSASTVPTDGSSRNEETPAAPTPAGATGGSSAWLDSSSENRGLGSELSKPGVLASQVDSPFSGCFEDLAISASTSLGMGPCHGPEENEYKSEGTFGIHVAENPSIQLLEGNPGPPADPDGGPRPQADRKFQEREVPCHRPSPGALWLQVAVTGVLVVTLLVVLYRRRLH
notes: Expressed from vector pIRES in MAVS-KO MEFs; also called C79F variant; MAVS-C79F SNP
B3: Homo sapiens mitochondrial antiviral signaling protein (MAVS), endogenous wild-type, as oligomers in human PBMC and in plasma of SLE patients (other)
chain: PFAEDKTYKYICRNFSNFCNVDVVEILPYLPCLTARDQDRLRATCTLSGNRDTLWHLFNTLQRRPGWVEYFIAALRGCELVDLADEVASVYQSYQPRTSDRPPDPLEPPSLPAERPGPPTPAAAHSIPYNSCREKEPSYPMPVQETQAPESPGENSEQALQTLSPRAIPRNPDGGPLESSSDLAALSPLTSSGHQEQDTELGSTHTAGATSSLTPSRGPVSPSVSFQPLARSTPRASRLPGPTGSVVSTGTSFSSSSPGLASAGAAEGKQGAESDQAEPIICSSGAEAPANSLPSKVPTTLMPVNTVALKVPANPASVSTVPSKLPTSSKPPGAVPSNALTNPAPSKLPINSTRAGMVPSKVPTSMVLTKVSASTVPTDGSSRNEETPAAPTPAGATGGSSAWLDSSSENRGLGSELSKPGVLASQVDSPFSGCFEDLAISASTSLGMGPCHGPEENEYKSEGTFGIHVAENPSIQLLEGNPGPPADPDGGPRPQADRKFQEREVPCHRPSPGALWLQVAVTGVLVVTLLVVLYRRRLH
notes: Endogenous protein from donors; In some experiments labelled with Alx488 or Alx546; also called MAVS-WT; SLE MAVS oligomers

Experiments:
[1] = target: B3; experiment: purified plasma oligomers incubated with purified mitochondria of MAVS-WT MEFs, mitochondria re-purified; immunoblot
[2] = target: the molecule itself; experiment: self-oligomerization in reconstituted MAVS-KO MEFs; semi-denaturing TGX gel and immunoblot
[3] = target: the molecule itself; experiment: self-oligomerization in human PBMC from healthy donors; semi-denaturing agarose gel and immunoblot
[4] = target: T1, His-tagged human MAVS-WT expressed in MAVS-deficient MEFs (human, UniProt Q7Z434 1-540, limits assumed); experiment: plasma oligomers incubated with mitochondria of MAVS-KO MEFs expressing His-tagged human MAVS-WT; anti-His immunoblot
T1 construct: also called His-tagged human WT MAVS; not shown: N-terminal His-tag

[5] = target: B2; experiment: plasma oligomers incubated with mitochondria of MAVS-KO MEFs expressing His-tagged human MAVS-C79F; anti-His immunoblot

B1: Mouse MAVS, endogenous, on mitochondria of wild-type MEFs and BMDCs (other, UniProt Q8VCF0 1-503, looked up)
chain: MTFAEDKTYKYIRDNHSKFCCVDVLEILPYLSCLTASDQDRLRASYRQIGNRDTLWGLFNNLQRRPGWVEVFIRALQICELPGLADQVTRVYQSYLPPGTSLRSLEPLQLPDFPAAVSGPSAFAPGHNIPDHGLRETPSCPKPVQDTQPPESPVENSEQLLQTNSGAVARMSGGSLIPSPNQQALSPQPSREHQEQEPELGGAHAANVASVPIATYGPVSPTVSFQPLPRTALRTNLLSGVTVSALSADTSLSSSSTGSAFAKGAGDQAKAATCFSTTLTNSVTTSSVPSPRLVPVKTMSSKLPLSSKSTAAMTSTVLTNTAPSKLPSNSVYAGTVPSRVPASVAKAPANTIPPERNSKQAKETPEGPATKVTTGGNQTGPNSSIRSLHSGPEMSKPGVLVSQLDEPFSACSVDLAISPSSSLVSEPNHGPEENEYSSFRIQVDESPSADLLGSPEPLATQQPQEEEEHCASSMPWAKWLGATSALLAVFLAVMLYRSRRLAQ
notes: Endogenous full protein on the outer mitochondrial membrane of mouse cells; also called MAVS-WT (MEF); endogenous MAVS
[1]
  binding result: binds

## B2
[2]
  binding result: binds

## B3
[3]
  binding result: binds
[4]
  binding result: binds
[5]
  binding result: binds

From patent publication US20190099470A1 (UNIVERSITY OF VERMONT AND STATE AGRICULTURAL COLLEGE, published 2019)
